Source: patent US20240317865A1, “ANTIBODIES AGAINST INTEGRIN ALPHA 11 BETA 1” (MOMENTA PHARMACEUTICALS, INC., priority 2020, published 2024)
“Also recorded” adds a separate entry of the source.

T1: α11β1 I Domain (Homo sapiens, UniProt Q9UKX5)
T1 sequence (Q9UKX5 164-345 limits assumed): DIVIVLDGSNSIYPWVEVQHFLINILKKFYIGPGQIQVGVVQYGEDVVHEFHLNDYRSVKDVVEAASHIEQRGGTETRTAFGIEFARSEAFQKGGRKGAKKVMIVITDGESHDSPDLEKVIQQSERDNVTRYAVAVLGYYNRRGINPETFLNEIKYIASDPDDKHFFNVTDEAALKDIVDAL

T2: adhesion of CHO-K1 cells expressing human α11 to rat tail type I collagen (Homo sapiens, UniProt Q9UKX5)
T2 construct: expressed in transfected cells; host or cells: CHO-K1
T2 sequence (Q9UKX5 23-1188): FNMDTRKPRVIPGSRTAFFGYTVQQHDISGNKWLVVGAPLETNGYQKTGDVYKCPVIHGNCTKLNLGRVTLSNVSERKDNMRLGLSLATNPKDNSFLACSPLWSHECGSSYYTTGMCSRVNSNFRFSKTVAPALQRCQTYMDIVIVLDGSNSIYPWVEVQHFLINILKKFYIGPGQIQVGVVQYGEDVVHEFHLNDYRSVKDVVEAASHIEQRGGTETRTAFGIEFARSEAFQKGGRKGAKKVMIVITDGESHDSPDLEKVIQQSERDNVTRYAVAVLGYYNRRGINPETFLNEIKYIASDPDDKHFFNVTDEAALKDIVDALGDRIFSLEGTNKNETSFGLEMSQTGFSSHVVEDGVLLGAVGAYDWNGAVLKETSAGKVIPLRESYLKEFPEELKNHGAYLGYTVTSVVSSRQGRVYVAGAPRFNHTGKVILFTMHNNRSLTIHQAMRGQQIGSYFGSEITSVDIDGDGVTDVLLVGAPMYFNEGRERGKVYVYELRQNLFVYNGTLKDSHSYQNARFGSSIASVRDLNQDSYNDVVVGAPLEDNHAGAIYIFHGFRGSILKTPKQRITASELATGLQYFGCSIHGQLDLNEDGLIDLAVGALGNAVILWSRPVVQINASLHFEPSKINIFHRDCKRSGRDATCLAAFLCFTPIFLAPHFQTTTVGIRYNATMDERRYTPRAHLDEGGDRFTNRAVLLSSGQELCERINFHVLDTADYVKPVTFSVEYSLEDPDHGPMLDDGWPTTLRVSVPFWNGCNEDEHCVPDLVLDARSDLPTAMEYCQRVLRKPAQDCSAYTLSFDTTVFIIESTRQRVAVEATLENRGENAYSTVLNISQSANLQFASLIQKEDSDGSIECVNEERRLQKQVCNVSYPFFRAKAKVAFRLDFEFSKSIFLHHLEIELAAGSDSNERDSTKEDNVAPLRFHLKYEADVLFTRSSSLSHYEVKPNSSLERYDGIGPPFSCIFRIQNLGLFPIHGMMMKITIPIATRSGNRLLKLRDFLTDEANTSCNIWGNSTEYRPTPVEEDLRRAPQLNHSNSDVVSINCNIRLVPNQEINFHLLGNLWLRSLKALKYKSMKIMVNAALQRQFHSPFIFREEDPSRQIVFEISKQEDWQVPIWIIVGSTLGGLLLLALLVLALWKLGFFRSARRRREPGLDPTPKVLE


How the values were obtained:
[1] = test system: CHO-K1 human α11-mediated rat tail type I collagen gel contraction; assay: Collagen gel contraction assay; format: cell-based; settings: compared to untreated condition
Method: 24-well plates were blocked with 2% BSA in PBS overnight at 37° C. The following day, the plates were washed 3 times with PBS before being used in the assay. Human CHO cell lines expressing α11 were harvested and resuspended at 1.25×10^6 in ExpiCHO Expression Medium (Gibco™ Cat #A2910002). The collagen gel solution was prepared by diluting 3 mg/mL stock collagen type I (Gibco™ Collagen I Rat Protein, Tail Cat #A1048301) to 1 mg/mL in the media containing the CHO cells. Sodium hydroxide was added to the solution to neutralize the pH and 400 μL of the collagen solution was added to each well of the 24-well plates. For the wells where the antibodies were included in the collagen gel solution, CHO cells were prepared at 2.5×10^6 and the antibodies were prepared at 2× final concentration in ExpiCHO media. The cells and antibodies were then combined 1:1 before the addition of the stock collagen type 1. The gels were allowed to polymerize for 60 minutes at 37° C. Antibodies were added to the ExpiCHO media, which was then layered on top of the polymerized gel (400 μL/well). The gels were incubated for 6 days at 37° C. before gel contraction was quantified. Images of each well were analyzed using Image J and gel contraction was determined as a percentage of the initial gel area.
Selected exemplary antibodies were tested for the ability to inhibit cell-mediated 3D gel contraction because this ability is directly linked to the functionality of the exemplary antibodies.

[2] = test system: A549 cell xenografts; assay: Tumor xenograft model; format: in vivo, C.B-17 SCID mice; settings: A549 xenograft, SCID mice
Method: Fifty-six female C.B-17 SCID mice were inoculated with A549 cells (5×10^6 cells/mouse) subcutaneously in the flank. Once tumor volume reached ˜100 mm^3, animals were randomized amongst 7 groups of 8 mice each. Mice were then treated intraperitonealy every 3 days for a total of 7 doses with isotype controls or novel mAbs 79E3E3, 16E10 and 9G04 (2 and 20 mg/kg) or with docetaxel at 10 mg/kg every 4 days for a total of 6 doses. Tumor volumes and body weights were recorded twice a week with a gap of 2-3 days in between two measurements until any of the following conditions defined were observed: loss of 20% or more body weight; tumors that inhibit normal physiological function such as eating, drinking, and mobility; ulcerated tumors; tumor size greater than 2000 mm^3 and clinical observations of prostration, paralysis, seizures and hemorrhages.
In this example, studies were performed to determine if inhibition of α11β1 function with mAb results in xenograft growth inhibition. As shown in FIG. 16 and Table 4, blocking α11β1 on mouse CAFs impeded xenograft growth in SCID mice.

[3] = molecular target: T1, α11β1 I Domain; assay: SPR binding to α11β1 I Domain; settings: in words
Method: (§1) The affinity of antibodies for human α11β1 was measured by surface plasmon resonance assay (SPR). Affinity was measured at pH 7.6 and 25° C. with a Biacore T200 instrument. Anti-HIS antibody was immobilized on the SPR sensor surface using EDC/NHS covalent attachment. HIS-tagged human α11β1 was captured on the sensor surface and a single-cycle kinetics assay was used. Increasing concentrations of test antibody were injected in series over the sensor-bound α11β1. Dissociation was monitored for 1000 seconds. A sensor surface with only anti-HIS antibody and a series of blank injections were used to double-reference subtract the data. A 1:1 Langmuir model was fit to the data to estimate the kinetic association and dissociation constants. The affinity (equilibrium dissociation constant) of the interaction was calculated by dividing the kinetic dissociation constant by the kinetic association constant. Between injection cycles α11β1 and bound antibody were removed with an injection of 10 mM glycine at pH 1.5.
(§2) The binding affinity of antibodies for the α11β1 Headpiece and α11β1 I Domain as measured by SPR is shown in FIG. 10A and FIG. 10B, respectively.

[4] = test system: α11β1 Headpiece; assay: SPR binding to α11β1 Headpiece; set-up: species or system human; settings: in words
Method: as §1, §2

[5] = molecular target: T1, α11β1 I Domain; assay: ELISA binding to in-house generated α11β1 I domain; set-up: An in-house generated I domain of α11β1 was used; made in house; settings: in words
Method: 0.25 μg/mL of target antigen (recombinant human or mouse α11β1) was plated in a 96-well plate over night at 4° C. Plates were washed (PBS with 0.1% Tween-20), blocked (PBS with 2% BSA and 0.05% Tween-20) for 1 hour at room temperature and incubated with a range of antibody concentrations for 1 hour at room temperature. Subsequently, plates were washed and incubated with biotinylated anti-rabbit/mouse/human IgG in a 1:1000 dilution buffer and incubated for 1 hour at room temperature. After washing the plates, Streptavidin HRP was added at 1:200 in dilution buffer and incubated for 1 hour at room temperature. Ultra TMB ELISA substrate solution was added and the plates incubated for 5 minutes on a plate shaker. The reaction was stopped by adding stop solution to each well and plates were read at 450 nm.
Data was also collected to determine whether antibodies of interest bind to the I domain of α11β1. An in-house generated I domain of α11β1 was used. […] Mouse antibodies 10-F23, 10-L15, 7-O8, 6-A12, 9-G05 and 9-E16 and rabbit antibodies 7-H12 and 2-D3 were also tested for binding against the in-house generated α11β1 I domain. FIGS. 3A and 3B show graphs illustrating binding data from exemplary mAbs.

[6] = molecular target: T2, adhesion of CHO-K1 cells expressing human α11 to rat tail type I collagen; assay: Cell adhesion inhibition (CHO-K1 hu α11 cells to type I collagen, xCelligence); format: cell-based; settings: in words
Method: 0.6×10^6 cells/mL were incubated with each antibody at a range of concentrations for 20 minutes at 37° C. E-Plate VIEW 96 PET plate coated with 100 ng/ml type I collagen or PBS overnight at room temperature was blocked in 3% BSA for 1 house at room temperature. After washing the plate with PBS, cell and antibody mixture was added to the wells and the plate was places into an xCelligence machine. Cell adhesion was recorded over 6 hours. The time point of maximum cell adhesion was used for comparison relative to control.
A CHO-K1 hu α11 cell line was used to assess the ability of mAbs to block α11β1-mediated binding to type I collagen. […] In the “Untreated” condition, cells were plated on type I collagen but no antibody was added and in the “Uncoated” condition, cells were seeded onto BSA-coated wells containing no type I collagen. Statistics were performed using one-way ANOVA followed by Dunnett's multiple comparisons test. […] Therefore, it is possible that these mAbs bind on an α11β1 domain that keeps the integrin in a low or intermediate affinity state. […] Nine human mAbs were also tested for their ability to inhibit the binding of human CHO-α11 cells to type I collagen.

Binding to α11β1 I domain (SPR) [3] | Binding to α11β1 headpiece domain (SPR) [4] | Inhibition of cell adhesion to type I collagen [6] | Molecule | Inhibition of CHO-hu α11-mediated collagen gel contraction [1] | Tumor growth inhibition compared to isotype control [2] | Binding to the I domain of α11β1 [5]
do not bind | do not bind | – | 16E10: rabbit anti-α11β1 mAb; heavy chain SEQ ID NO: 161, light chain SEQ ID NO: 162 (antibody) heavy: METGLRWLLLVAVLKGVQCQSLEESGGDLVKPGASLTLTCRVSGFSFSSSYYMCWVRQAPGKGLEWIACIGTTRGSTYYATWAKGRFTISKISSTTVTLQMTSLTDADTATYFCARDATGYRINTIGLYFNLWGPGTLVTVSSGQPKAPSVFPLAPCCGDTPSSTVTLGCLVKGYLPEPVTVTWNSGTLTNGVRTFPSVRQSSGLYSLSSVVSVTSSSQPVTCNVAHPATNTKVDKTVAPSTCSKPMCPPPELPGGPSVFIFPPKPKDTLMISRTPEVTCVVVDVSQDDPEVQFTWYINNEQVRTARPPLREQQFNSTIRVVSTLPIAHQDWLRGKEFKCKVHNKALPAPIEKTISKARGQPLEPKVYTMGPPREELSSRSVSLTCMINGFYPSDISVEWEKNGKAEDNYKTTPTVLDSDGSYFLYSKLSVPTSEWQRGDVFTCSVMHEALHNHYTQKSISRSPGK light: MDTRAPTQLLGLLLLWLPGARCAFELTQTPSSVEAAVGGTPTIKCQASQTIYSYLSWYQQKPGQPPKLLIYEASKLASGVPSRFSGSGSGTDYTLTISDLECADAATYYCQSYHGTASTEYNTFGGGTEVVVRGDPVAPTVLIFPPAADQVATGTVTIVCVANKYFPDVTVTWEVDGTTQTTGIENSKTPQNSADCTYNLSSTLTLTSTQYNSHKEYTCKVTQGTTSVVQSFNRGDC | inhibited | no significant inhibition of tumor growth | –
do bind | – | – | 79E3E3: rat anti-α11β1 mAb; VH SEQ ID NO: 145, VL SEQ ID NO: 146 (antibody, V domains shown) VH: MDWLWNLLFLMVVAQSAQAQIQLVQSGPEVKKPGESVKISCKASGYTFTDYAMNWVKQAPGNGLKWMGWINTQTGKPTYADDFKQRFVFSLETSARTTYLQINNLNIEDTATYFCTRLGTGNTKGFAYWGQGTLVTVSS VL: MESQTHVLISLLLCVSGTCGDILINQSPASLTVSAGERVTMSCKSSQSLLYSENNQDYLAWYQQKPGQFPKLLIYGASNRHTGVPDRFTGSGSGTDFTLTISSVQAEDLADYYCEQTYRYPFTFGSGTKLEIK | inhibited | significantly inhibited tumor growth | high and I-domain binder
do bind | – | decrease cell adhesion to collagen | 9-G05: mouse anti-α11β1 mAb; VH SEQ ID NO: 103, VL SEQ ID NO: 104 (antibody, V domains shown) VH: EVQLQQSGPELVKPGASVKIPCKASGYTFPDYNMDWVKQSHGKSLEWIGYINPDNGGTIYNQKFKGKATLTVDKSSSTAYMELRSLTSEDTAVYYCARLDSSGYGYYAMDYWGQGTSVTVSS VL: DIVLTQSPASLAVSLGQRATISCRASESVDNYGISFMHWYQQKPGQPPKLLIYRASNLDSEIPARFSGSGSRTDFTLTIDPVETDDVATYYCQQSYKDPRTFGGGTKLEIK | inhibited | – | I-domain binders; also recorded: bound the I domain
